Assay results taken from article PMC5340911.

T1: Pab2 (nuclear poly(A) binding protein) (Schizosaccharomyces pombe, UniProt O14327 1-166)
T1 sequence: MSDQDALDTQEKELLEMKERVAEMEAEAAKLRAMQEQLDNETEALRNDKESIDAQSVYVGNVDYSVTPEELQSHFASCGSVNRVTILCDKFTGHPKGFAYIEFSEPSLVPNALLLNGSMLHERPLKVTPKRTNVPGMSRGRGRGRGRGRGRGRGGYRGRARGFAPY

T2: PABPN1 (His-PABPN1) (bovine, UniProt Q28165 1-306)
T2 sequence: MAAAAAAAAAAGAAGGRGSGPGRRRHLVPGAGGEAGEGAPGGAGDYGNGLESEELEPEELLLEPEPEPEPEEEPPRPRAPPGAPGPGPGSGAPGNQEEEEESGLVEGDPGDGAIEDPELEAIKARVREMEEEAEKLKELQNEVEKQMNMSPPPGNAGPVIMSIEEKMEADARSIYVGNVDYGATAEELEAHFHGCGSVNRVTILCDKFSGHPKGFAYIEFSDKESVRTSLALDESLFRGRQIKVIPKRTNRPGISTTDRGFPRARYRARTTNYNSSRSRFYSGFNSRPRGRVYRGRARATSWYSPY


Tests used:
Experiment in all cases: filter binding
[1] = molecular target: T1, Pab2 (nuclear poly(A) binding protein)
PABPN1 (His-PABPN1) = molecular target: T2, PABPN1 (His-PABPN1)
[2] = molecular target: T1, Pab2 (nuclear poly(A) binding protein); remark: listed apart in the source

Binder | Kd [1] | binding result (PABPN1 (His-PABPN1)) | binding result [2]
AAAAAAAAAAAAAA (ssRNA) [A14] | 5.3 ± 1.1 nM |  | 
A100 (ssRNA) RNA: AAAAAAAAAAAAAAAAAAAAAAAAAAAAAAAAAAAAAAAAAAAAAAAAAAAAAAAAAAAAAAAAAAAAAAAAAAAAAAAAAAAAAAAAAAAAAAAAAAAA |  | binds | binds
